# Target: human 20S proteasome core particle (human) (UniProt P60900)
# Assay: not given
# Conditions: not given
# Chain of human 20S proteasome core particle (human) (P60900 whole entry, looked up): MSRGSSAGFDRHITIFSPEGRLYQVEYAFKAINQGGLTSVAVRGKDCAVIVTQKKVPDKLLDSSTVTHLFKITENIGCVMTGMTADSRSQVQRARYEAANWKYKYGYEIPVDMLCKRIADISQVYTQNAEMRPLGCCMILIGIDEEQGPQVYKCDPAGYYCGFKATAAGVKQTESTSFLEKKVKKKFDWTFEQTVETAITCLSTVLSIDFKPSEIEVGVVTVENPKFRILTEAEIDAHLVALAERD
# Chain of human proteasome activator 200 (PA200) (from UniProt Q14997 1-1843) (natural protein) (Q14997 whole entry): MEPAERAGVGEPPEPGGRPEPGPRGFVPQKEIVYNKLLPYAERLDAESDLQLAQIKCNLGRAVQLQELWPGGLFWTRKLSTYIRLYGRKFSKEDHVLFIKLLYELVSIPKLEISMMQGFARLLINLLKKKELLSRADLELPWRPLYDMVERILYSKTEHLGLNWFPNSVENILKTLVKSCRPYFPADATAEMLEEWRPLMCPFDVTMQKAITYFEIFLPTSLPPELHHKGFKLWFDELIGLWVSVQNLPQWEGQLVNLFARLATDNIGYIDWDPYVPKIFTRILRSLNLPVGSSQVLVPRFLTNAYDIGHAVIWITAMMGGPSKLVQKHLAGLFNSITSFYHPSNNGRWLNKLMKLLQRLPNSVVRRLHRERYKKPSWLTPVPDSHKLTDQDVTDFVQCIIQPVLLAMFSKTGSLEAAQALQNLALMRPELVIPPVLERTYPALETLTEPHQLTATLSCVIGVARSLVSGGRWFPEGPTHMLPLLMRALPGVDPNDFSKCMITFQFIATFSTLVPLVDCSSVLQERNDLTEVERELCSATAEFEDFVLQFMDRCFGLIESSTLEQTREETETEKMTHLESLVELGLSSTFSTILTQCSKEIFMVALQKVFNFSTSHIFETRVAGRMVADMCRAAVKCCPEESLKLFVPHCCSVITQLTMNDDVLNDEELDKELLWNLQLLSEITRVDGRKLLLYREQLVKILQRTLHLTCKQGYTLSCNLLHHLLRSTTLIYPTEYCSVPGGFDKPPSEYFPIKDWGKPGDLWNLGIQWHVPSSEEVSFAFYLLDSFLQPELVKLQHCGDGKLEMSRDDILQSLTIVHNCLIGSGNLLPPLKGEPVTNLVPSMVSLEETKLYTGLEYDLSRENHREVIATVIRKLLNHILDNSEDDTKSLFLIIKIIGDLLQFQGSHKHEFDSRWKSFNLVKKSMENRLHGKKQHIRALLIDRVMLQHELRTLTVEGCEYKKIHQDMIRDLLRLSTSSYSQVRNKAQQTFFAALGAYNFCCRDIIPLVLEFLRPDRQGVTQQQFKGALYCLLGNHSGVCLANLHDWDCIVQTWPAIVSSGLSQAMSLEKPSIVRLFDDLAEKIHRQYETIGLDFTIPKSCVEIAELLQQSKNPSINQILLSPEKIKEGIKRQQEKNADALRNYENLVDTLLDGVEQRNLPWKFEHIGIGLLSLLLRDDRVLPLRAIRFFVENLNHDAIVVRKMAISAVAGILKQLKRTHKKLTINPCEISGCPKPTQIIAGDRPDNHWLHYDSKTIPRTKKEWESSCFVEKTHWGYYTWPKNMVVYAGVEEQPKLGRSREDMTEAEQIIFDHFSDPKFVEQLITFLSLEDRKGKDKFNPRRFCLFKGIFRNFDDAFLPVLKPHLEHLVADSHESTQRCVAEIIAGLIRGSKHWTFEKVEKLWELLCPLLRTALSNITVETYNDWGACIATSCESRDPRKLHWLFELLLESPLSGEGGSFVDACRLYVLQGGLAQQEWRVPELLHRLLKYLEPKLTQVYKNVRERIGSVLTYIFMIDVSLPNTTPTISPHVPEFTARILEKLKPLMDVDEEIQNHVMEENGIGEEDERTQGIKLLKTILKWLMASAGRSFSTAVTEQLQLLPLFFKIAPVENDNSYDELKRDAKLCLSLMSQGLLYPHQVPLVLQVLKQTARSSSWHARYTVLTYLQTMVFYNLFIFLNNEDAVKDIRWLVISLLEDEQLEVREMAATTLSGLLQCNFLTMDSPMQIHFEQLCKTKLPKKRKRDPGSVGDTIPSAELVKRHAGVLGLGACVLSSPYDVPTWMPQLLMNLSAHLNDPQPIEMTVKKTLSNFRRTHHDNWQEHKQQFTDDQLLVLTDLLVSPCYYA
row,"Vmax of cleavage of Suc-LLVY-AMC (chymotryptic-like activity) by PA200-20S, 2.5 nM; 20S alone 3.14 μM/min",Molecule
1,11.4 µM/min,human proteasome activator 200 (PA200) (from UniProt Q14997 1-1843) (natural protein)

# Target: T1, human proteasome activator 200 (PA200) (human, UniProt Q14997 1-1843)
# T1 construct: Carries the cofactors 5,6[PP]2-InsP4 and InsP6 in its two openings; The results say 1,844 residues, the methods 1-1,843; source: Trichoplusia ni (Hi5) insect cells, baculovirus (Bac-to-Bac), purified (Ni-NTA, gel filtration on Superose 6)
# Assay: cryo-EM structure; 3 μl 20S-CP (approximately 1.4 mg/ml) incubated with 6 μl PA200 (approximately 0.44 mg/ml) in ice for 1 h; single-capped PA200-20S particles selected; 2.72 Å
# Conditions: both partners purified
# T1 sequence (Q14997 whole entry): as above
row,Molecule,binding result
1,"human 20S proteasome subunit α4 (natural protein, 20S proteasome subunit α4, human; named only as α4; Stood in the experiment as a subunit of the whole 20S core particle; source: bought: Boston Biochem, as part of the human 20S proteasome) MSYDRAITVFSPDGHLFQVEYAQEAVKKGSTAVGVRGRDIVVLGVEKKSVAKLQDERTVRKICALDDNVCMAFAGLTADARIVINRARVECQSHRLTVEDPVTVEYITRYIASLKQRYTQSNGRRPFGISALIVGFDFDGTPRLYQTDPSGTYHAWKANAIGRGAKSVREFLEKNYTDEAIETDDLTIKLVIKALLEVVQSGGKNIELAVMRRDQSLKILNPEEIEKYVAEIEKEKEENEKKKQKKAS",binds
2,"human 20S proteasome subunit α3 (natural protein, 20S proteasome subunit α3, human; named only as α3; Stood in the experiment as a subunit of the whole 20S core particle; source: bought: Boston Biochem, as part of the human 20S proteasome) MSRRYDSRTTIFSPEGRLYQVEYAMEAIGHAGTCLGILANDGVLLAAERRNIHKLLDEVFFSEKIYKLNEDMACSVAGITSDANVLTNELRLIAQRYLLQYQEPIPCEQLVTALCDIKQAYTQFGGKRPFGVSLLYIGWDKHYGFQLYQSDPSGNYGGWKATCIGNNSAAAVSMLKQDYKEGEMTLKSALALAIKVLNKTMDVSKLSAEKVEIATLTRENGKTVIRVLKQKEVEQLIKKHEEEEAKAEREKKEKEQKEKDK",binds
3,"human 20S proteasome subunit α7 (natural protein, 20S proteasome subunit α7, human; named only as α7; Stood in the experiment as a subunit of the whole 20S core particle; source: bought: Boston Biochem, as part of the human 20S proteasome) MSSIGTGYDLSASTFSPDGRVFQVEYAMKAVENSSTAIGIRCKDGVVFGVEKLVLSKLYEEGSNKRLFNVDRHVGMAVAGLLADARSLADIAREEASNFRSNFGYNIPLKHLADRVAMYVHAYTLYSAVRPFGCSFMLGSYSVNDGAQLYMIDPSGVSYGYWGCAIGKARQAAKTEIEKLQMKEMTCRDIVKEVAKIIYIVHDEVKDKAFELELSWVGELTNGRHEIVPKDIREEAEKYAKESLKEEDESDDDNM",binds

# Other lines, results leading:
row,binding result,Molecule
1,binds,"human 20S proteasome subunit α5 (natural protein, 20S proteasome subunit α5, human; named only as α5; Stood in the experiment as a subunit of the whole 20S core particle; source: bought: Boston Biochem, as part of the human 20S proteasome) MFLTRSEYDRGVNTFSPEGRLFQVEYAIEAIKLGSTAIGIQTSEGVCLAVEKRITSPLMEPSSIEKIVEIDAHIGCAMSGLIADAKTLIDKARVETQNHWFTYNETMTVESVTQAVSNLALQFGEEDADPGAMSRPFGVALLFGGVDEKGPQLFHMDPSGTFVQCDARAIGSASEGAQSSLQEVYHKSMTLKEAIKSSLIILKQVMEEKLNATNIELATVQPGQNFHMFTKEELEEVIKDI"
2,binds,"human 20S proteasome subunit α2 (natural protein, 20S proteasome subunit α2, human; named only as α2; Stood in the experiment as a subunit of the whole 20S core particle; source: bought: Boston Biochem, as part of the human 20S proteasome) MAERGYSFSLTTFSPSGKLVQIEYALAAVAGGAPSVGIKAANGVVLATEKKQKSILYDERSVHKVEPITKHIGLVYSGMGPDYRVLVHRARKLAQQYYLVYQEPIPTAQLVQRVASVMQEYTQSGGVRPFGVSLLICGWNEGRPYLFQSDPSGAYFAWKATAMGKNYVNGKTFLEKRYNEDLELEDAIHTAILTLKESFEGQMTEDNIEVGICNEAGFRRLTPTEVKDYLAAIA"
